In patent US20250197514A1 (INTERVET, published 2025):
Changes are numbered by the printed parent chain. Numbers in names are those of the source.

T1: canine FcRn heterodimer (FCGRT large subunit p51 + beta-2-microglobulin), biotin-labeled (Canis lupus familiaris; Canis familiaris, biotin-labeled (site not stated; the chain carries an AviTag))
T1 construct: also called FcRn/B2M; FcRn/β2M; not shown: AviTag, named only
T1 chain (part 1 of 2): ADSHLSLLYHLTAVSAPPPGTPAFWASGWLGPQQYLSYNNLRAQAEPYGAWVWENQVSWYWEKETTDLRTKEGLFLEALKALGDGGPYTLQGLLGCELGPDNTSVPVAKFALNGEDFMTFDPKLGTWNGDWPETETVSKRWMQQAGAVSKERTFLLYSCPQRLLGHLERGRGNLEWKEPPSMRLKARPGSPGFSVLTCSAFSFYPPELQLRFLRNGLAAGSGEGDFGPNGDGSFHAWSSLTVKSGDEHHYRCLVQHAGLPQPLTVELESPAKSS
T1 chain (part 2 of 2): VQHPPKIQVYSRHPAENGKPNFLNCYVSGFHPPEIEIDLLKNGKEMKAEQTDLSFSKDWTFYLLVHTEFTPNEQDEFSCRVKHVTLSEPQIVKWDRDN

B1: cIL-13Ra2-Fc (unsubstituted canine IL-13Rα2 ECD - cIgG-B hinge - cIgG-B Fc fusion protein) (Fc fusion)
chain: SMLSNAEIKVNPPQDFEIVDPGYLGYLSLQWQPPLFPDNFKECTIEYELKYRNIDSENWKTIITKNLHYKDGFDLNKGIEAKINTLLPAQCTNGSEVRSSWAETTYWTSPQGNRETKIQDMDCVYYNWQYLVCSWKPGMGVHFDTNYQLFYWYEGLDHSAECTDYIKVNGKNMGCRFPYLESSDYKDFYICVNGSSESQPIRPSYFIFQLQNIVKPMPPDYLSLTVKNSEEINLKWNMPKGPIPAKCFIYEIEFTEDGTTWVTTTVENEIQITRTSNESQKLCFLVRSKVNIYCSDDGIWSEWSDEQCWKGDIWKETPKRENGRVPRPPDCPKCPAPEMLGGPSVFIFPPKPKDTLLIARTPEVTCVVVDLDPEDPEVQISWFVDGKQMQTAKTQPREEQFNGTYRVVSVLPIGHQDWLKGKQFTCKVNNKALPSPIERTISKARGQAHQPSVYVLPPSREELSKNTVSLTCLIKDFFPPDIDVEWQSNGQQEPESKYRTTPPQLDEDGSYFLYSKLSVDKSRWQRGDTFICAVMHEALHNHYTQESLSHSPGK
notes: also called cIL-13Rα2-cIgGB-Fc; substitution: None
B2: cIL-13Ra2-Fc-YTE (Fc fusion)
chain: B1 chain with L357Y, A359T, T361E
notes: also called L252Y/A254T/T256E
B3: cIL-13Rα2-cIgGB-Fc-DPY (Fc fusion)
chain: B1 chain with T361D, I413P, N541Y
notes: also called cIL-13Ra2-cIgGB-Fc-DPY; T256D/I308P/N434Y
B4: cIL-13Rα2-cIgGB-Fc-DY (Fc fusion)
chain: B1 chain with T361D, N541Y
notes: also called cIL-13Ra2-cIgGB-Fc-DY; T256D/N434Y
B5: cIL-13Rα2-cIgGB-Fc-F (Fc fusion)
chain: B1 chain with N541F
notes: also called cIL-13Ra2-cIgGB-Fc-F; N434F
B6: cIL-13Rα2-cIgGB-Fc-K (Fc fusion)
chain: B1 chain with H540K
notes: also called cIL-13Ra2-cIgGB-Fc-K; H433K
B7: cIL-13Rα2-cIgGB-Fc-KF (Fc fusion)
chain: B1 chain with H540K, N541F
notes: also called cIL-13Ra2-cIgGB-Fc-KF; H433K/N434F
B8: cIL-13Rα2-cIgGB-Fc-KYT (Fc fusion)
chain: B1 chain with H540K, N541Y, Y543T
notes: also called cIL-13Ra2-cIgGB-Fc-KYT; H433K/N434Y/Y436T
B9: cIL-13Rα2-cIgGB-Fc-L (Fc fusion)
chain: B1 chain with H540L
notes: also called cIL-13Ra2-cIgGB-Fc-L; H433L
B10: cIL-13Rα2-cIgGB-Fc-LF (Fc fusion)
chain: B1 chain with H540L, N541F
notes: also called cIL-13Ra2-cIgGB-Fc-LF; H433L/N434F
B11: cIL-13Rα2-cIgGB-Fc-LFT (Fc fusion)
chain: B1 chain with H540L, N541F, Y543T
notes: also called cIL-13Ra2-cIgGB-Fc-LFT; H433L/N434F/Y436T
B12: cIL-13Rα2-cIgGB-Fc-LY (Fc fusion)
chain: B1 chain with H540L, N541Y
notes: also called cIL-13Ra2-cIgGB-Fc-LY; H433L/N434Y
B13: cIL-13Rα2-cIgGB-Fc-LYT (Fc fusion)
chain: B1 chain with H540L, N541Y, Y543T
notes: also called cIL-13Ra2-cIgGB-Fc-LYT; H433L/N434Y/Y436T
B14: cIL-13Rα2-cIgGB-Fc-PY (Fc fusion)
chain: B1 chain with I413P, N541Y
notes: also called cIL-13Ra2-cIgGB-Fc-PY; I308P/N434Y
B15: cIL-13Rα2-cIgGB-Fc-T (Fc fusion)
chain: B1 chain with Y543T
notes: also called cIL-13Ra2-cIgGB-Fc-T; Y436T
B16: cIL-13Rα2-cIgGB-Fc-Y (Fc fusion)
chain: B1 chain with N541Y
notes: Made in ExpiCHO, Protein A purified; also called cIL-13Ra2-cIgGB-Fc-Y; N434Y
B17: cIL-13Rα2-cIgGB-Fc-YT (Fc fusion)
chain: B1 chain with N541Y, Y543T
notes: also called cIL-13Ra2-cIgGB-Fc-YT; N434Y/Y436T
B18: cIL-13Rα2-cIgGB-Fc-KFT (Fc fusion)
chain: B1 chain with H540K, N541F, Y543T
notes: also called cIL-13Ra2-cIgGB-Fc-KFT; H433K/N434F/Y436T
B19: cIL-13Rα2-cIgGB-Fc-KY (Fc fusion)
chain: B1 chain with H540K, N541Y
notes: also called cIL-13Ra2-cIgGB-Fc-KY; H433K/N434Y
B20: c218D9-H4L3-cIgGBm-YD (antibody)
heavy: EVTLQESGPGLVKPSQTLSLTCSFSGFSLSTFGRGVGWIRQRPGRGLEWMGHIWWDDDKYYNPALKSRLSITKDTAKNQVFLQLSSMTTEDTAVYYCARIAGGLRRAPYAMDSWGQGTLVTVSSASTTAPSVFPLAPSCGSTSGSTVALACLVSGYFPEPVTVSWNSGSLTSGVHTFPSVLQSSGLYSLSSMVTVPSSRWPSETFTCNVAHPASKTKVDKPVPKRENGRVPRPPDCPKCPAPEMLGGPSVFIFPPKPKDTLYIARDPEVTCVVVALDPEDPEVQISWFVDGKQMQTAKTQPREEQFAGTYRVVSVLPIGHQDWLKGKQFTCKVNNKALPSPIERTISKARGQAHQPSVYVLPPSREELSKNTVSLTCLIKDFFPPDIDVEWQSNGQQEPESKYRTTPPQLDEDGSYFLYSKLSVDKSRWQRGDTFICAVMHEALHNHYTQESLSHSPGK
light: DIVMTQTPLSLSVSPGETASISCRASENIYSSLAWFRQKPGQSPQLLVYAATNLADGVPDRFSGSGSGTDYTLRISRVEADDTGVYYCQHFRDTPPTFGQGTKLEIKRNDAQPAVYLFQPSPDQLHTGSASVVCLLNSFYPKDINVKWKVDGVIQDTGIQESVTEQDKDSTYSLSSTLTMSSTEYLSHELYSCEITHKSLPSTLIKSFQRSECQRVD
notes: also called c218D9VH4-cIgGBm-YD; L252Y/T256D

Molecular target: T1, canine FcRn heterodimer (FCGRT large …)
Experiment: BLI (Octet HTX), biotinylated FcRn/B2M on streptavidin biosensors, analyte 500-7.8 nM, pH 6.0, 1:1 fit
Description: (§1) The binding of antibodies and IgG Fc fusion proteins to FcRn proteins was determined by Octet™ HTX using Streptavidin (SA) biosensors. First, biotin-labeled […] was loaded onto pre-hydrated SA biosensors for 60 s at a concentration of 10 μg/mL. Second, the biosensors were placed into pH 6.0 TBS/Casein buffer for the blocking phase for 180 s. Third, for the association phase, FcRn/B2M loaded biosensors were placed into 2-fold serial dilutions from 500 nM down to 7.8 nM of antibody or IgG Fc fusion protein in pH 6.0 or 7.4 TBS/Casein buffer for 15 s. Finally, the biosensors were placed into either pH 6.0 or pH 7.4 TBS/Casein buffer for the dissociation phase for 60 s. Analysis was performed using Octet Data Analysis 12.0 software and curves were fitted using a 1:1 binding model.

Binder	Kd [nM]
B1	16.9
B2	6.59
B3	0.34
B4	0.87
B5	0.93
B6	7.55
B7	0.97
B8	2.58
B9	12.3
B10	2.27
B11	2.87
B12	2.35
B13	3.32
B14	0.3
B15	5.95
B16	0.11
B17	1.39

Molecular target: T1, canine FcRn heterodimer (FCGRT large …)
Experiment: BLI (Octet HTX), biotinylated FcRn/B2M on streptavidin biosensors, analyte 500-7.8 nM, pH 7.4, 1:1 fit
Description: as §1

Binder	Kd [nM]
B1	7020
B2	363
B3	19.8
B4	91.8
B5	229
B6	626
B7	414
B18	136
B19	296
B8	253
B9	7210
B10	226
B11	905
B12	298
B13	127
B14	20.4
B15	6120
B16	187
B17	233

Molecular target: T1, canine FcRn heterodimer (FCGRT large …)
Experiment: BLI (Octet HTX), biotinylated FcRn/B2M on streptavidin biosensors, analyte 500-7.8 nM, pH 6.0, 1:1 fit; pH 6.0
Description: as §1

Binder	Kd [nM]
B18	931
B19	0.00046

Molecular target: T1, canine FcRn heterodimer (FCGRT large …)
Experiment: BLI (Octet HTX), biotinylated FcRn/B2M on streptavidin biosensors, analyte 500-7.8 nM, pH 7.4, 1:1 fit; pH 7.4
Description: as §1

Binder	Kd [nM]
B20	105
